B1: WT His6-MutL, full length [E. coli] / WT MutS, full length [E. coli] (parent)
chain 1: MPIQVLPPQLANQIAAGEVVERPASVVKELVENSLDAGATRIDIDIERGGAKLIRIRDNGCGIKKDELALALARHATSKIASLDDLEAIISLGFRGEALASISSVSRLTLTSRTAEQQEAWQAYAEGRDMNVTVKPAAHPVGTTLEVLDLFYNTPARRKFLRTEKTEFNHIDEIIRRIALARFDVTINLSHNGKIVRQYRAVPEGGQKERRLGAICGTAFLEQALAIEWQHGDLTLRGWVADPNHTTPALAEIQYCYVNGRMMRDRLINHAIRQACEDKLGADQQPAFVLYLEIDPHQVDVNVHPAKHEVRFHQSRLVHDFIYQGVLSVLQQQLETPLPLDDEPQPAPRSIPENRVAAGRNHFAEPAAREPVAPRYTPAPASGSRPAAPWPNAQPGYQKQQGEVYRQLLQTPAPMQKLKAPEPQEPALAANSQSFGRVLTIVHSDCALLERDGNISLLSLPVAERWLRQAQLTPGEAPVCAQPLLIPLRLKVSAEEKSALEKAQSALAELGIDFQSDAQHVTIRAVPLPLRQQNLQILIPELIGYLAKQSVFEPGNIAQWIARNLMSEHAQWSMAQAITLLADVERLCPQLVKTPPGGLLQSVDLHPAIKALKDE
chain 2: MSAIENFDAHTPMMQQYLRLKAQHPEILLFYRMGDFYELFYDDAKRASQLLDISLTKRGASAGEPIPMAGIPYHAVENYLAKLVNQGESVAICEQIGDPATSKGPVERKVVRIVTPGTISDEALLQERQDNLLAAIWQDSKGFGYATLDISSGRFRLSEPADRETMAAELQRTNPAELLYAEDFAEMSLIEGRRGLRRRPLWEFEIDTARQQLNLQFGTRDLVGFGVENAPRGLCAAGCLLQYAKDTQRTTLPHIRSITMEREQDSIIMDAATRRNLEITQNLAGGAENTLASVLDCTVTPMGSRMLKRWLHMPVRDTRVLLERQQTIGALQDFTAGLQPVLRQVGDLERILARLALRTARPRDLARMRHAFQQLPELRAQLETVDSAPVQALREKMGEFAELRDLLERAIIDTPPVLVRDGGVIASGYNEELDEWRALADGATDYLERLEVRERERTGLDTLKVGFNAVHGYYIQISRGQSHLAPINYMRRQTLKNAERYIIPELKEYEDKVLTSKGKALALEKQLYEELFDLLLPHLEALQQSASALAELDVLVNLAERAYTLNYTCPTFIDKPGIRITEGRHPVVEQVLNEPFIANPLNLSPQRRMLIITGPNMGGKSTYMRQTALIALMAYIGSYVPAQKVEIGPIDRIFTRVGAADDLASGRSTFMVEMTETANILHNATEYSLVLMDEIGRGTSTYDGLSLAWACAENLANKIKALTLFATHYFELTQLPEKMEGVANVHLDALEHGDTIAFMHSVQDGAASKSYGLAVAALAGVPKEVIKRARQKLRELESISPNAAATQVDGTQMSLLSVPEETSPAVEALENLDPDSLTPRQALEWIYRLKSLV

We go through six variants from paper PMC4521584.

The first experiment covers variants of B1. In words: SPR. The following applies: with WT MutS, MutS sliding clamps pre-formed on 100-bp end-blocked DNA in the presence of ATP, value read at the highest MutL concentration (last point, est. about 5,000 …), read off a plot.
As for chain 1 R55D R57D, the response is -7%. With chain 1 R55D R57D A138E H139A, the response is -1%. The same measure, in the same setting: to chain 1 A138E H139A belongs 3%; to chain 1 A138E, 11%. With chain 1 K52C, the response was found to be 13%.

The experiment is the same for the next values; noted with them: with WT His6-MutL, MutS sliding clamps pre-formed on 100-bp end-blocked DNA in the presence of ATP, value read at the highest MutL concentration (last point, est. about 5,000 …), read off a plot.
In the case of chain 2 P595A I597A M759D, the response was 8%.
